Legend:
[1] = molecular target: recombinant Mouse VEGF164 (mouse) (UniProt Q00731); experiment: SPR (Biacore T100); monomeric scFv over 1000 RU mouse VEGF164 on a CM5 chip; 1:1 fit
[2] = molecular target: mouse VEGF (isoform not given) (mouse) (UniProt Q00731); experiment: indirect ELISA on coated growth factor; 2C3 at 1.0 ug/ml
[3] = molecular target: VEGF-B; experiment: as above
[4] = molecular target: human VEGF-A (human) (UniProt P15692); experiment: as above
[5] = molecular target: VEGF-C; experiment: as above
[6] = molecular target: VEGF-D; experiment: as above
[7] = molecular target: PlGF; experiment: as above
[8] = molecular target: human VEGF-A (human) (UniProt P15692); experiment: SPR (Biacore T100); IgG over 100 RU human VEGF-A on a CM5 chip; 1:1 fit; 37°C
[9] = molecular target: human VEGF-A (human) (UniProt P15692); experiment: SPR (Biacore T100); IgG over 100 RU human VEGF-A on a CM5 chip; 1:1 fit; 25°C

human VEGF-A (human), sequence (P15692 other isoform, or with tags, fused parts or gaps limits assumed): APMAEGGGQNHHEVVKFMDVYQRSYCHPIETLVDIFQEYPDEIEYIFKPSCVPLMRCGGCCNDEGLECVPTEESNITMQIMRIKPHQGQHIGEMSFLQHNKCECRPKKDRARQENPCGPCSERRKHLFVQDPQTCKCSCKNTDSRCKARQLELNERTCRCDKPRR
mouse VEGF (isoform not given) (mouse), sequence (Q00731 other isoform, or with tags, fused parts or gaps limits assumed): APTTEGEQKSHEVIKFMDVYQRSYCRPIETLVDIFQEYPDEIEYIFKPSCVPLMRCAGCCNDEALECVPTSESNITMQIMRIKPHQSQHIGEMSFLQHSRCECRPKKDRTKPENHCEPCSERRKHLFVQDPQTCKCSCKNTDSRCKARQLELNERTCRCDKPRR

Row | Substance | Kd [1] [nM] | mean absorbance (absorbance at 450 nM) [2] | mean absorbance (absorbance at 450 nM) [3] | mean absorbance (absorbance at 450 nM) [4] | mean absorbance (absorbance at 450 nM) [5] | mean absorbance (absorbance at 450 nM) [6] | mean absorbance (absorbance at 450 nM) [7] | Kd [8] [nM] | Kd [9] [nM]
1 | EJ173/112-C11 (r84/PGN311) scFv | 10 | – | – | – | – | – | – | – | –
2 | murine 2C3 anti-VEGF antibody (IgG) | – | 0.09 | 0.09 | 3.07 | 0.09 | 0.12 | 0.1 | 313 | 12.4
